Usually Kd stands for the constant that tells how readily two partners part at equilibrium. What is called koff is a measure of how fast the partners let go of each other. The low end stands for a long-lived complex, the high end for a short-lived complex. The term kon denotes the second-order rate constant of association. Read a high kon as faster complex formation.

The values below come from patent publication US20200207841A1 (MIT, published 2020).

Positions count from the first letter of the chain named. Names and notes keep the numbering of the source.

First the molecules themselves.
B1: 4E5A (antibody, V domains shown)
VH: VKLLEQSGAELVKPGASVRLSCTASGFNIKDTYMSWVKQRPEQGLEWIGRIDPENGDTKYDPKFQGKATITADTSSNTAYLHLSSLTSGDTAVYYCSRGWEGFAYWGQGTLVTVSA
VL: ELVMTQTPASLAVSLGQRATISCRASENVDKYGNSFMHWYQQKAGQPPKLLIYRASELQWGIPARFSGSGSRTDFTLTINPVEADDVATYFCQRSNEVPWTFGGGTKLEIKR
notes: also called 4E11-5A; E45A
B2: 4E11 VL-N57E (antibody, V domains shown)
VH: B1 VH with E54A
VL: B1 VL with K31R, Q59E, W60S
B3: 4E11 VL-E59Q (antibody, V domains shown)
VH: B1 VH with E54A
VL: B1 VL with K31R, E57N, W60S
B4: VH_S26_del (antibody, V domains shown)
VH: VKLLEQSGAELVKPGASVRLSCTAGFNIKDTYMSWVKQRPEQGLEWIGRIDPENGDTKYDPKFQGKATITADTSSNTAYLHLSSLTSGDTAVYYCSRGWEGFAYWGQGTLVTVSA
VL: B1 VL
B5: VH_G27P (antibody, V domains shown)
VH: B1 VH with G26P
VL: ELVMTQTPASLAVSLGQRATISCRASENVDKYGNSFMHWYQQKAGQPPKLLIYRASELQWGIPARFSGSGSRTDFTLTINPVEADDVATYFCQRSNEVPWTFGGGTKLEIK
notes: also called 4E5-G27P; copies: 2 + 2
B6: VH_Y106R (antibody, V domains shown)
VH: B1 VH with Y105R
VL: B5 VL
notes: copies: 2 + 2
B7: VH_G27_del (antibody, V domains shown)
VH: B4 VH with G25S
VL: B1 VL
B8: VH_G27A (antibody, V domains shown)
VH: B1 VH with G26A
VL: B1 VL
B9: VH_A25_del (antibody, V domains shown)
VH: B4 VH with A24S
VL: B5 VL
notes: also called 4E5-del-25; copies: 2 + 2
B10: 4E5A single chain Fv on yeast (scFv, V domains shown)
VH: B1 VH
VL: B1 VL
notes: also called 4E5A scFv
B11: VH_G27A single chain Fv on yeast (scFv, V domains shown)
VH: B1 VH with G26A
VL: B1 VL
B12: VH_G27P single chain Fv on yeast (scFv, V domains shown)
VH: B1 VH with G26P
VL: B1 VL

In one experiment the target is DV1 (Dengue virus serotype 1, virus used in FRNT) (Dengue virus serotype 1 (DV1)). Put plainly: cell-based or functional assay.
As to B1, the “FRNT50 (focus reduction neutralization test)” value is 0.19 µg/mL.

The target in the next experiment is DV2 (Dengue virus serotype 2, virus used in FRNT) (Dengue virus serotype 2 (DV2)). The experiment can be described thus: cell-based or functional assay.
Consider B1, for which the “FRNT50 (focus reduction neutralization test)” value turned out to be 0.028 µg/mL.

The target in another experiment is DV3 (Dengue virus serotype 3, virus used in FRNT) (Dengue virus serotype 3 (DV3)). The experiment can be described thus: cell-based or functional assay.
Turning to B1, the “FRNT50 (focus reduction neutralization test)” value worked out at 0.77 µg/mL.

The next experiment addresses DV4 (Dengue virus serotype 4, virus used in FRNT) (Dengue virus serotype 4 (DV4)). The experiment can be described thus: cell-based or functional assay.
Turning to B1, the “FRNT50 (focus reduction neutralization test)” value turned out to be 4 µg/mL.

A further experiment concerns the target T1, EDIII-DV4 (Dengue virus serotype 4 (DV4), UniProt P09866 580-672).
T1 construct: also called EDIII of DV4; DV4 EDIII
The experiment can be described thus: calculated from KD, relative to 4E11 WT.
Regarding B2, the “ΔΔG (ΔGmutant - ΔGWT)” value was -0.93 kcal/mol.
Turning to B3, the “ΔΔG (ΔGmutant - ΔGWT)” value was -0.77 kcal/mol.

The next experiment deals with T1, EDIII-DV4. Put plainly: calculated from KD, ΔG = RTln(KD) at 25° C.
Turning to B2, the ΔG was -6.92 kcal/mol.
On the same count and under the same terms, the same measure for B3: -6.76 kcal/mol.

The target of the next experiment is T1, EDIII-DV4.
Test: not given
Molecule B2 displayed a dissociation constant (Kd) of 8410 nM.
On the same count and under the same terms, the result for B3 reads 11000 nM.

For a further experiment, the target named is T2, EDIII-DV3 (Dengue virus serotype 3 (DV3), UniProt Q6YMS3 579-671).
T2 construct: also called EDIII of DV3; EDIII-DVIII
Put plainly: competition ELISA; affinity relative to 4E5A. In general terms: ELISA stands for enzyme-linked immunosorbent assay.
As to B4, the “REL AFFINITY” value is 4.42.
Same read-out and setting: the result for B5 reads 0.73.
For the molecule B6, the “REL AFFINITY” value was 0.72.
Still for that read-out and setting: the result for B7 reads 2.67; that for B8, 1.17.
Still for that read-out and setting: the result for B9 reads 1.22.

The next experiment has as its target T1, EDIII-DV4. The experiment can be described thus: competition ELISA; affinity relative to 4E5A.
For the molecule B5, the “REL AFFINITY” value is 0.06.
Consider B6, for which the “REL AFFINITY” value amounted to 0.46.
Same read-out and setting: the same measure for B7: 4.78.
Turning to B8, the “REL AFFINITY” value amounted to 2.92.
As for B9, the “REL AFFINITY” value is 0.54.

The next experiment addresses T3, EDIII-DV1 (Dengue virus serotype 1 (DV1), UniProt P17763 581-673).
T3 construct: also called EDIII of DV1; EDIII-DVI
Put plainly: competition ELISA; affinity relative to 4E5A.
On to B4, for which the “REL AFFINITY” value is over 1.23.
Same read-out and setting: the same measure for B5: 0.08; for B6: over 1.23.
On the same count and under the same terms, the result for B7 reads over 1.23; that for B8, over 1.23.
Same read-out and setting: the same measure for B9: 0.29.

For a further experiment, the target named is T2, EDIII-DV3.
Test: not given
As for B1, the Kd stood at 24.2 nM.
The same measure, in the same setting: the result for B4 reads 5.47 nM; that for B5, 33.1 nM; that for B6, 33.4 nM.
The same measure, in the same setting: the result for B7 reads 9.05 nM.
B8 registered a Kd of 20.6 nM.
As for B9, the affinity, expressed as Kd, was 19.8 nM.

The target of the next experiment is T1, EDIII-DV4.
Test: not given
This is another data set of the same source.
In turn, B5 showed a Kd of 1970 nM.
With B6, binding was characterised by a dissociation constant (Kd) of 272 nM.
The molecule B7 returned a Kd of 26.4 nM.
On the same count and under the same terms, the result for B8 reads 43.2 nM; that for B9, 236 nM.

The target of a further experiment is T3, EDIII-DV1.
Test: not given
For B1, the Kd was determined as 0.368 nM.
As to B4, the Kd was under 0.3 nM.
With B5, the equilibrium dissociation constant (Kd) amounted to 4.58 nM.
Molecule B6 displayed a Kd of under 0.3 nM.
Still for that read-out and setting: the same measure for B7: under 0.3 nM.
In turn, B8 had a Kd of under 0.3 nM.
On the same count and under the same terms, the result for B9 reads 1.27 nM.

A further experiment deals with T4, EDIII-DV2 (Dengue virus serotype 2 (DV2), UniProt P14337 581-673).
T4 construct: also called EDIII of DV2; EDIII-DVII
Test: not given
As for B1, the dissociation constant (Kd) is under 0.3 nM.
In turn, B4 registered a dissociation constant Kd of under 0.3 nM.
The same measure, in the same setting: the same measure for B7: under 0.3 nM.
As to B8, the Kd was under 0.3 nM.
Same read-out and setting: the result for B9 reads under 0.3 nM.

The next experiment deals with T3, EDIII-DV1.
Test: not given
This is another data set of the same source.
In turn, B1 registered a dissociation constant (Kd) of 0.217 nM.
Same read-out and setting: the result for B4 reads 0.118 nM.
Take B5: binding was characterised by a dissociation constant (Kd) of 2.76 nM, the koff came to 0.00841 s⁻¹ and the kon is 3.05e+06 M⁻¹ s⁻¹.
The molecule B7 yielded a Kd of 0.31 nM, a koff of 0.000471 s⁻¹ and a kon of 1.52e+06 M⁻¹ s⁻¹.
B8 displayed a Kd of 0.0805 nM, a koff of 8.38e-05 s⁻¹ and a kon of 1.04e+06 M⁻¹ s⁻¹.
As to B9, the affinity, expressed as Kd, was 1.43 nM; the koff was 0.00133 s⁻¹; the kon is 933000 M⁻¹ s⁻¹.

A further experiment concerns the target T4, EDIII-DV2.
Test: not given
The source holds these as a separate data set.
B1 displayed a Kd of 0.129 nM.
The same measure, in the same setting: the result for B4 reads 0.104 nM.
The molecule B5 registered a Kd of 0.265 nM, a koff of 0.000527 s⁻¹ and a kon of 1.99e+06 M⁻¹ s⁻¹.
In the case of B7, binding was put at a Kd of 0.269 nM, the koff is 0.000563 s⁻¹ and the kon came out at 2.09e+06 M⁻¹ s⁻¹.
As for B8, the equilibrium dissociation constant (Kd) amounted to 0.202 nM and the kon amounted to 2.08e+06 M⁻¹ s⁻¹.
For B9, the koff was 0.000182 s⁻¹ and the kon was found to be 2.74e+06 M⁻¹ s⁻¹.

The target of another experiment is T2, EDIII-DV3.
Test: not given
This is another data set of the same source.
B1 gave a Kd of 2.72 nM.
The same measure, in the same setting: the same measure for B4: 2.6 nM.
B5 came in with a Kd of 4.52 nM, an off-rate (koff) of 0.0133 s⁻¹ and a kon of 2.95e+06 M⁻¹ s⁻¹.
For B7, in that order: 2.39 nM, 0.0483 s⁻¹ and 2.02e+07 M⁻¹ s⁻¹.
B8 yielded a Kd of 3.24 nM and a koff of 7.54 s⁻¹.
Molecule B9 came in with a dissociation constant Kd of 5.4 nM, a koff of 0.0269 s⁻¹ and a kon of 4.98e+06 M⁻¹ s⁻¹.

The target in the next experiment is T1, EDIII-DV4.
Test: not given
This is another data set of the same source.
In turn, B7 had a Kd of 8.04 nM, a koff of 0.0188 s⁻¹ and a kon of 2.34e+06 M⁻¹ s⁻¹.
As for B8, binding was characterised by a dissociation constant (Kd) of 22.1 nM, the koff stood at 0.0406 s⁻¹ and the kon stood at 1.83e+06 M⁻¹ s⁻¹.
Taken in the same sequence, the figures for B9 were 25.9 nM, 0.13 s⁻¹ and 4.99e+06 M⁻¹ s⁻¹.

The next experiment addresses T1, EDIII-DV4. Put plainly: scFv displayed on yeast (YSD), soluble tagged EDIII-DV4 titrated, read by FACS. On the technique in general: Flow cytometry measures light scatter and fluorescence of single cells or particles in a stream.
For the molecule B10, the Kd came to 650 nM.
B11: the Kd stood at 185 nM.
As to B12, the Kd is 53300 nM.
